Results from publication PMC8119897.

Key:
[1] = biological target: Fructose-1,6-bisphosphate aldolase FBA^P of Bacillus methanolicus MGA3 (encoded on plasmid pBM19) (Bacillus methanolicus MGA3); assay: crystal structure; FBA^P crystallised by sitting-drop vapor diffusion at 8°C; reservoir 20% PEG 4000, 0.2 M imidazole/malate buffer pH 6; molecular replacement with PDB 3Q94
[2] = biological target: Fructose-1,6-bisphosphate aldolase FBA^C of Bacillus methanolicus MGA3 (chromosomally encoded) (Bacillus methanolicus MGA3); assay: crystal structure; FBA^C crystallised by sitting-drop vapor diffusion at 20°C; reservoir 0.1 M sodium acetate trihydrate pH 4.5, 2.0 M ammonium sulfate; molecular replacement with PDB 3Q94

Row | stoichiometry N [1] | stoichiometry N [2] | Substance
1 | 4 |  | Fructose-1,6-bisphosphate aldolase FBA^P of Bacillus methanolicus MGA3 (encoded on plasmid pBM19) (enzyme)
2 |  | 4 | Fructose-1,6-bisphosphate aldolase FBA^C of Bacillus methanolicus MGA3 (chromosomally encoded) (enzyme)
